{"source": "paper PMC7432041", "about": "“[…], Artificial Tetrameric Lectins: A Tool to Screen Ligand and Pathogen Interactions” (International Journal of Molecular Sciences, 2020)", "molecules": {"B1": {"name": "DC-SIGNR ECD (natural extracellular domain of human DC-SIGNR) (domain or fragment, UniProt Q9H2X3 78-399, looked up)", "chain": "SLSQEQSEQDAIYQNLTQLKAAVGELSEKSKLQEIYQELTQLKAAVGELPEKSKLQEIYQELTRLKAAVGELPEKSKLQEIYQELTRLKAAVGELPEKSKLQEIYQELTRLKAAVGELPEKSKLQEIYQELTELKAAVGELPEKSKLQEIYQELTQLKAAVGELPDQSKQQQIYQELTDLKTAFERLCRHCPKDWTFFQGNCYFMSNSQRNWHDSVTACQEVRAQLVVIKTAEEQNFLQLQTSRSNRFSWMGLSDLNQEGTWQWVDGSPLSPSFQRYWNSGEPNNSGNEDCAEFSGSGWNDNRCDVDNYWICKKPAACFRDE", "notes": "DC-SIGNR (L-SIGN), human, extracellular domain, amino acids 78 to 399; optimized synthetic gene in pET30-b between NdeI and HindIII; also called natural tetrameric DC-SIGNR ECD; L-SIGN ECD"}, "B2": {"name": "Biotin sortagged DC-SIGNR-CRD (biotin-LPRT-GGG-DC-SIGNR CRD) (domain or fragment, human)", "chain": "LPRTGGGLCRHCPKDWTFFQGNCYFMSNSQRNWHDSVTACQEVRAQLVVIKTAEEQNFLQLQTSRSNRFSWMGLSDLNQEGTWQWVDGSPLSPSFQRYWNSGEPNNSGNEDCAEFSGSGWNDNRCDVDNYWICKKPAACFRDE", "modifications": "biotin on the N-terminus (biotin-LPRT peptide joined by sortase A)", "notes": "sortase A motif of the biotin-LPRT-OMe peptide, transferred onto the N-terminal glycines; poly-Gly extension at the N-terminus of the CRD, exposed after factor Xa cleavage; DC-SIGNR (L-SIGN), human, CRD, amino acids 264 to 399; optimized synthetic gene in pET30-b between XbaI and HindIII; Theoretical mass 16.5 kDa (ESI-MS 16,556); also called biotin-CRD; biotinylated DC-SIGNR CRD; source: …"}}, "experiment_in_all_cases": "SEC-MALS; SEC-LS (static and dynamic light scattering, refractive index, absorbance at 280 and 550 nm); Shodex KW 802.5 column at 4 °C, 25 mM Tris pH 7.5, 150 mM NaCl, 4 mM CaCl2, 0.5 mL/min; 50 µL injected", "key": {"[1]": {"biological_target": "DC-SIGNR Fc-CRD (fusion of the DC-SIGNR CRD with human IgG1 Fc) (human)"}, "[2]": {"biological_target": "the molecule itself"}, "Cy3-NeutrAvidin": {"biological_target": "T1, Cy3-NeutrAvidin (UniProt P02701 25-152, Cy3 (Cy3-NHS ester, degree of labelling 0.5))", "T1 construct": "NeutrAvidin, a deglycosylated tetrameric protein derived from avidin; subunit MW = 14.5 kDa as printed; Deglycosylated avidin; also called NeutrAvidin-Cy3; tetrameric NeutrAvidin; source: bought: ThermoFisher Scientific; labelled with Cy3-NHS ester", "T1 sequence (P02701 25-152)": "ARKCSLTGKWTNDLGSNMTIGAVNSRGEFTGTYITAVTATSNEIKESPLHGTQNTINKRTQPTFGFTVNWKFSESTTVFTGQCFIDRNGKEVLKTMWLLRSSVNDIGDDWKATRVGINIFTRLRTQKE", "settings": "both partners purified"}}}
{"molecule": "DC-SIGNR Fc-CRD (fusion of the DC-SIGNR CRD with human IgG1 Fc) (Fc fusion)", "values": [{"measurement": "stoichiometry N", "setting": "[1]", "result": 2}]}
{"molecule": "B1", "values": [{"measurement": "stoichiometry N", "setting": "[2]", "result": 4}]}
{"molecule": "B2", "values": [{"measurement": "stoichiometry N", "setting": "Cy3-NeutrAvidin", "result": "4 biotin-CRD per NeutrAvidin tetramer (4:4 by chains)"}]}
